Experimental data taken from patent US20150246953A1 (Scripps Research, published 2015).

Target: T1, MG281F2 construct, residues 278 to 450 with N-terminal 6-His tag and thrombin cleavage site (Mycoplasma genitalium, UniProt P47523 279-452)
T1 sequence: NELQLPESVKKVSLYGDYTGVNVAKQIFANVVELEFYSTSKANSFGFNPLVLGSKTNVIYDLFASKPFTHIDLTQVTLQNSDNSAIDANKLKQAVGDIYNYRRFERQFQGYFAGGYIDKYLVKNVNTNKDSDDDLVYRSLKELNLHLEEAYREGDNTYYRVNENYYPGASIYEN
Experiment: Western blot, plasma 13PL as primary antibody

B1: IgG from multiple myeloma patient plasma 13PL (antibody, V domains shown)
VH: AVSLVESGGGTVEPGSTLRLSCAASGFTFGSYAFHWVRQAPGDGLEWVAFISYNGSSKYYANFVKGRFTISRDNSSNTLSLQMNSLKASDTAVYYCARAPDCAQADCHKGAFGYWGQGTLVTVSS
VL: DIEMTQSPSSLSASTGDKVTITCQASQDIAQFLDWYQQRPGDTPKLLIYDASNLAIGVPSRFTGSGSGTDFTFTISSLQPEDIAVYYCQHYDDFPISFGPGTKLETKR
notes: also called multiple myeloma antibody 13PL
binding result: no binding (tested: 1 µg/µg and 2 µg/µg)
